Patent US9505841B2, “Use of an anti-Ang2 antibody” (Samsung Electronics Co., Ltd., priority 2013, dated 2016)

Experiments:
Akt, eNOS and 42/44 = test: Phosphorylation of Tie2 downstream signaling proteins in HUVEC (immunoblot); assay type: cell-based, human
Method: To see whether antibody 10D6 induces the activation of the downstream signaling of a Tie2 receptor as well as the activation of the Tie2 receptor itself, the phosphorylation degrees of proteins participating in the downstream signaling when Ang2 alone or Ang2 and antibody 10D6 was treated were tested using immune blotting.
Specifically, HUVEC (ATCC) cells (1×10^6) were cultured in a 6-well culture dish using EGM-2 (Lonza) media at 37° C. and when they reached 80˜90% confluency, the media were replaced with serum-free media (Lonza) and cultured at 37° C. for 6 to 16 hours. The dish was washed once with PBS, and the cultured cells were treated with a mixture prepared by mixing 60 nM of the Ang2 antibody (10D6) with 40 nM of Ang2 protein (R&D systems) and letting them stand for 20 min. and further cultured for 30 min. For comparison, groups in which Ang1 (R&D systems) 4 nM, Ang2 (R&D systems) 40 nM, and Ang2 (R&D systems) 40 nM+anti-Ang2 antibody (Regeneron) 60 nM were treated respectively were prepared.
The cells were washed using PBS, treated with a lysis buffer (Roche), collected to a tube to be dissolved at 4° C. for 30 min. and then, centrifuged at 13,000 rpm for 15 min. to measure a supernatant. A sample buffer (Invitrogen) mixed with a reducing agent was added to 25 ug of a cell lysate, which was boiled at 95° C. for 5 min., and then, applied to NuPAGE Novex 4-12% Bis-Tris gel (Invitrogen) and transferred onto Nitrocellulose membrane (Invitrogen).
To see the presence of the phosphorylation of Akt, eNOS and 42/44 involved in the downstream signaling, the blots were blocked with PBST mixed with 3% (v/v) skim milk (Sigma) for 30 min. and then treated with an anti pAkt antibody, anti p-eNOS antibody, and anti p-42/44 antibody (all of them; cell signaling). The blots were reacted in a stripping buffer (Thermo) for 15 min. and then blocked again to identify Akt, eNOS, and 42/44 using an anti Akt antibody, anti eNOS antibody, and anti 42/44 antibody (all of them; cell signaling).

Tie2 receptor = test: Internalization of Tie2 receptor in HUVEC (confocal microscopy); assay type: cell-based, human
Method: HUVEC (ATCC) cells (1×10^6) were cultured in m-slide 8 wells (#80826, ibidi) for 24 hours and then subjected to serum starvation in serum-free EBM-2 media (Lonza) for 3 hours. 200 ng/ml of Ang1 (R&D systems) or 2ug/ml of Ang2 (R&D systems) and 10 ug/ml of antibody 10D6 were each diluted in EBM-2 media and then, the cells were treated with them and incubated according to time specified in the picture. The cells fixed with 4% formaldehyde (Sigma) was dyed first with an anti-Tie2 antibody (R&D systems) and then subjected to a secondary dye with an anti-goat Alexa 555 antibody (red, Life technology) and an anti-mouse Alexa 488 antibody (green, Life technology). The dyed cells were treated with Vectashield mounting medium with DAPI (Vector labs) and then observed using a confocal laser scanning microscopy (Carl Zeiss).

B1: 10D6: mouse anti-Ang2 monoclonal antibody from hybridoma KCLRF-BP-00295; heavy chain variable region SEQ ID NO: 7, light chain variable region SEQ ID NO: 9 (antibody, V domains shown)
VH: DVQLQESGPGLVKPSQSLSLTCTVTGYSITSDYAWNWIRQFPGNKLEWMGYINYSGNTDYNPSLKSRSSITRDTSKNQFFLQLNSVTTGDTATYYCARGNFEGAMDYWGQGTSVTVSS
VL: SIVMTQTPKFLLVSAGDRVTITCKASQSVSNDVAWYQQKPGQSPKLLIYYASNRYPGVPDRFTGSGYGTDFTFTISTVQAEDLAVYFCQQDYSSPWTFGGGTKLEIK
modifications: Synthetic (Heavy chain variable region of an anti-Ang2 antibody); Synthetic (Light chain variable region of anti-Ang2 antibody)
Akt, eNOS and 42/44; 60 nM 10D6 + 40 nM Ang2, or Ang1 4 nM alone, 30 min
  downstream signaling (phosphorylation of Akt, eNOS, 42/44) compared to Ang2 sole-treatment and Ang2 + RG antibody: strongly induced
Akt, eNOS and 42/44; 60 nM 10D6 + 40 nM Ang2 vs Ang1 4 nM
  downstream signaling effects relative to Ang1 sole-treatment group: at least equal to those in the Ang1 sole-treatment group
Tie2 receptor; 2 ug/ml Ang2 and 10 ug/ml antibody
  time from which internalization of the Tie2 receptor started: 30 min
Tie2 receptor; anti-EEA1 antibody dye
  location of internalized Tie2 and antibody: located in an early endosome
